Where a chain is given by its changes, count along the chain named. Numbers in names are those of the source.

T1: Psy3 (S. cerevisiae, UniProt Q12318 1-242)
T1 sequence: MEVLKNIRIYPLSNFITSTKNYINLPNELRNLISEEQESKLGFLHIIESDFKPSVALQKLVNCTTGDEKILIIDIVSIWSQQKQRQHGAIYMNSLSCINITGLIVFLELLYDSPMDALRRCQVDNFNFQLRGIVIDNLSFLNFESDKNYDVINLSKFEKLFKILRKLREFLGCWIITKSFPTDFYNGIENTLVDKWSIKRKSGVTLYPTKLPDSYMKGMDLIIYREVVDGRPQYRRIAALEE

T2: His6-tagged Psy3-Csm2 heterodimer (S. cerevisiae, UniProt Q12318;P40465)
T2 sequence 1: T1 sequence
T2 sequence 2: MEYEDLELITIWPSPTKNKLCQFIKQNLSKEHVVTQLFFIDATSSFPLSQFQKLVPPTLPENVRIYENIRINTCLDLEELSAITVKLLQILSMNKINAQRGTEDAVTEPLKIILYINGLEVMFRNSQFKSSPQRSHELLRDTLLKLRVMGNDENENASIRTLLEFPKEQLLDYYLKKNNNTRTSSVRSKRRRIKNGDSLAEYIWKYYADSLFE

T3: His6-tagged Psy3Δ(1–7)-Csm2 heterodimer (S. cerevisiae, UniProt Q12318;P40465)
T3 sequence 1: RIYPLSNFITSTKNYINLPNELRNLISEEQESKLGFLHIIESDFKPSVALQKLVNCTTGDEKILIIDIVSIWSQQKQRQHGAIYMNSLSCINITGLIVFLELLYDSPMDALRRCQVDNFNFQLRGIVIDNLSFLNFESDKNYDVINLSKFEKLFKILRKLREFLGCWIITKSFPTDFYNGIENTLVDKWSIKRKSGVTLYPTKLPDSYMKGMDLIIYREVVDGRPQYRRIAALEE
T3 sequence 2: T2 sequence 2

B1: His6-Shu2 (natural protein)
chain: MSKDVIEYSKLFAKLVNTNDDTKLDDTIASFLYYMFPRELFIRAISLLESSDMFIYILDRVHNKEGNEHTSLIDVLVDEFYKGSSNSLLEYRLIVKDTNDGAPPILVDIAHWFCSCEEFCKYFHEALEKTDEKEELHDVLINEVDDHLQFSDDRFAQLDPHSLSKQWYFKFDKVCCSHLLAFSILLRSSINVLKFFTVNSNKVFVIAIDNIDEWLNLHINIVE
B2: Csm2 (natural protein)
chain: T2 sequence 2
B3: Shu1 (natural protein)
chain: MQFEERLQQLVESDWSLDQSSPNVLVIVLGDTARKYVELGGLKEHVTTNTVAGHVASRERVSVVFLGRVKYLYMYLTRMQAQANGPQYSNVLVYGLWDLTATQDGPQQLRLLSLVLRQCLSLPSKVEFYPEPPSSSVPARLLRFWDHIIR
B4: Shu2-Shu1 heterodimer (His6 tag removed) (complex)
chain 1: B1 chain
chain 2: B3 chain
B5: Shu2-Shu1(V51A) heterodimer (His6 tag removed) (complex)
chain 1: B1 chain
chain 2: B3 chain with V51A
B6: Shu2-Shu1(V51L) heterodimer (His6 tag removed) (complex)
chain 1: B1 chain
chain 2: B3 chain with V51L

For assay [1], the target named is T1, Psy3. The assay can be described thus: crystal structure.
Assay [2] deals with B1. Nature of the assay: pull-down.
Assay [3] has as its target T2, His6-tagged Psy3-Csm2 heterodimer. Nature of the assay: pull-down.
Assay [4] addresses T3, His6-tagged Psy3Δ(1–7)-Csm2 heterodimer. The assay can be described thus: pull-down.

In the case of B1, the binding result in assay [1] is given as “binds”. As to B2, in assay [1], the binding result was “binds”. Turning to B3, the binding result in assay [2] and in assay [1] was “binds” throughout. For the molecule B4, the binding result in assay [3] and in assay [4] was “binds” each time. In the case of B5, the binding result in assay [3] is “binds”.

Take B6: the binding result in assay [3] was “binds”.

These data come from PMC5727457 (Nucleic Acids Research, 2017).
